According to US20020049303A1:

Biological target: recombinant memapsin 2 (M2pd), auto-activated from pro-M2pd at pH 4.0 (human) (UniProt P56817)
Experiment: cell-based or functional assay

Sequence of recombinant memapsin 2 (M2pd), auto-activated from pro-M2pd at pH 4.0 (human) (P56817 25-419 limits assumed): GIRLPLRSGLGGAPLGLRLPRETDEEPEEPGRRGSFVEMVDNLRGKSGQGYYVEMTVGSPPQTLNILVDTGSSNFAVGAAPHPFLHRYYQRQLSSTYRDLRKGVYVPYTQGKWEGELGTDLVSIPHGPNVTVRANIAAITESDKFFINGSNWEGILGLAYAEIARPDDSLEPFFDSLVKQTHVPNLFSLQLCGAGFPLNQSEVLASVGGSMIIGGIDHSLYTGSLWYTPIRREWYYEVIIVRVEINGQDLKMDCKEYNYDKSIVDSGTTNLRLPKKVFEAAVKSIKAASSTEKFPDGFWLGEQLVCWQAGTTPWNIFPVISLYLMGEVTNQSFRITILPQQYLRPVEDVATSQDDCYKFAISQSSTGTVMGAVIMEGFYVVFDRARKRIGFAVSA

inhibition of M2pd activity (IC50): 300 µM
Substance: Pepstatin A (peptide)
